From publication PMC2873218 come the findings set out here.

Sequence of C. elegans KMN network containing KNL-1SD and the MIS-12SD complex (Q17635 whole entry, looked up): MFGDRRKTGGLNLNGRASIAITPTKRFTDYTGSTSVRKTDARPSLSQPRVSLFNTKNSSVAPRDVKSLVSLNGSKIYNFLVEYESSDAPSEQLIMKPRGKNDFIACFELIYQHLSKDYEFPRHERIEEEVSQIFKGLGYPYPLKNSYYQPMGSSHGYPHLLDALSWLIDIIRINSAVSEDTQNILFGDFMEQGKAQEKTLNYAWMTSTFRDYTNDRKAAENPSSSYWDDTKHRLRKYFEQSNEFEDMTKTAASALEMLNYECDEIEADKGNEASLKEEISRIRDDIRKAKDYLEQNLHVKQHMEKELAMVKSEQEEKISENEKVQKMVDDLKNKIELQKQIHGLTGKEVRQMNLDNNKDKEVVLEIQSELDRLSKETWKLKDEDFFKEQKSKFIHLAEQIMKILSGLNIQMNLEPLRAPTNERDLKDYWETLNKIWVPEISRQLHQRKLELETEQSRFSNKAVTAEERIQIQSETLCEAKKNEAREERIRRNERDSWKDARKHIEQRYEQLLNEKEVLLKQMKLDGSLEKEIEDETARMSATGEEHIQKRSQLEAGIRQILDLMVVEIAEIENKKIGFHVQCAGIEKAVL
Sequence of C. elegans KMN network containing KNL-1SD and the MIS-12SD complex (P34278 whole entry, looked up): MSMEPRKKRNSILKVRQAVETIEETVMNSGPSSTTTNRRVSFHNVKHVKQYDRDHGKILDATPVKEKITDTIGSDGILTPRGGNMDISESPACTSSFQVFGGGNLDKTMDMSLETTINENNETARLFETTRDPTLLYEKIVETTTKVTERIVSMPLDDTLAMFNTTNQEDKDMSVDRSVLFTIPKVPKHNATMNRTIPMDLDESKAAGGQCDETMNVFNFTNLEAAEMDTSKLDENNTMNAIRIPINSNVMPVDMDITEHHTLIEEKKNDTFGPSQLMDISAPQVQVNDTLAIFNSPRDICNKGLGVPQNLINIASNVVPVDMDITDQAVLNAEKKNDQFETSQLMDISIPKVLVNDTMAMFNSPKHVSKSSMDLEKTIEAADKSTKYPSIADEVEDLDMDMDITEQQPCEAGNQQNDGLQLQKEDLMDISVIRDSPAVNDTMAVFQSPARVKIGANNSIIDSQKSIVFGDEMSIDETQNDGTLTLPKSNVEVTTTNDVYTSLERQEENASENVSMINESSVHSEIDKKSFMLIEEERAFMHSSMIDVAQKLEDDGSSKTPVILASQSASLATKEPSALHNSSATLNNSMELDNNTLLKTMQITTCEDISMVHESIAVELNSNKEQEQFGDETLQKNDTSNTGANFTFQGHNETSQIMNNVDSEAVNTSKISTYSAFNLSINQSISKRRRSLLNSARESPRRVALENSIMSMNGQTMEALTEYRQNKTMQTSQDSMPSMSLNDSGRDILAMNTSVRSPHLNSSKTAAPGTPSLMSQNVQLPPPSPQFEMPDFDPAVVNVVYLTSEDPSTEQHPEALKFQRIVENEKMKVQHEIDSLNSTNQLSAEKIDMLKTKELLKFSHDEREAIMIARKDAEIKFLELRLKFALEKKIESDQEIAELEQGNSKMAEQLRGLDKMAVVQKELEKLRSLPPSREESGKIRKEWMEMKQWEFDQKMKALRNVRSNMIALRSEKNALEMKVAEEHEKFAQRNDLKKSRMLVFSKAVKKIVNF
Sequence of C. elegans KMN network containing KNL-1SD and the NDC-80SD complex (Q17635 whole entry, looked up): as the sequence (Q17635 whole entry, looked up) above
Sequence of C. elegans KMN network containing KNL-1SD and the NDC-80SD complex (P34278 whole entry, looked up): as the sequence (P34278 whole entry, looked up) above

The target in the test is microtubules. In words: co-sedimentation.
Sequence of microtubules (P68363 whole entry, chain 1 of 2): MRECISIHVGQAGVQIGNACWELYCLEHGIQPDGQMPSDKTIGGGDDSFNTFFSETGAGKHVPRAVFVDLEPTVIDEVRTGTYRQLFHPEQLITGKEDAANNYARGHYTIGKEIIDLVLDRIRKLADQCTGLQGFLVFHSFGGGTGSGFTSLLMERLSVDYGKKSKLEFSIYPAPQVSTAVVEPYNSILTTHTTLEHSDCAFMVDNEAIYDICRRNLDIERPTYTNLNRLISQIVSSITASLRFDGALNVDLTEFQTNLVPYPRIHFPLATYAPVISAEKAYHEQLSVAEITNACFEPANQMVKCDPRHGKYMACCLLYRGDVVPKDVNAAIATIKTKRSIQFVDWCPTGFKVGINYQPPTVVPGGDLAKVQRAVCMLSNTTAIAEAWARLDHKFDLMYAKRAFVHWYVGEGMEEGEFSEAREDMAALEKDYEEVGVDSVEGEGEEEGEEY
Sequence of microtubules (A8K068 whole entry, chain 2 of 2, further chain): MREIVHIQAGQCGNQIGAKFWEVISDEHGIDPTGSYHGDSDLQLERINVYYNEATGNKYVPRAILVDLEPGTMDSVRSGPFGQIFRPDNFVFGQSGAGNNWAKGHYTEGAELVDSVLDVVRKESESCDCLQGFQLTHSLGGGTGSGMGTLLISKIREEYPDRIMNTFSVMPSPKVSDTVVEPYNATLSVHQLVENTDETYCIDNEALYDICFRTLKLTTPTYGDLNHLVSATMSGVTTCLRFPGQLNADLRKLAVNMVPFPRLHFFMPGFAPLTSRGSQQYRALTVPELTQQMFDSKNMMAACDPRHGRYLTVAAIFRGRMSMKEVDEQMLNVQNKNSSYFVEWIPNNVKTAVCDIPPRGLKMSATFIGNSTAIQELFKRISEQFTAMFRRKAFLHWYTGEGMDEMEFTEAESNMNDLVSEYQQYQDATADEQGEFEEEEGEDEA
For “C. elegans KMN network containing KNL-1SD (from UniProt P34278 1-1010; Q17635 1-590) (complex)”, the Kd came to 2.1 µM.

The substance “C. elegans KMN network containing KNL-1SD and the MIS-12SD complex (from UniProt P34278 1-1010; Q17635 1-590)” displayed a Kd of 5.3 µM. “C. elegans KMN network containing KNL-1SD and the NDC-80SD complex (from UniProt P34278 1-1010; Q17635 1-590)” showed a Kd of 4.9 µM.
